Test results as given in patent US20110262477A1 (priority 2008, published 2011).

Test system: Nc1ncnc2c1ncn2[C@@H]1O[C@H](COP(=O)(O)O)[C@@H](O)[C@H]1O
Experiment: purified protein, by the assay type
Conditions: pH 7.5; 37.0 °C

“Bacillus anthracis BasA (AdsA homolog, NCBI locus tag BAS4031), tagged, affinity purified from E. coli, SEQ ID NO:41 (Bacillus anthracis)” gave a Km of 2.01 nM.
